Reference: the supplement of paper PMC10567573

B1: VPS39 (parent)
chain: TTLLKCYLHTNVALVAPLLRLENN
B2: CHCHD3 (parent)
chain: YSGAYGASVSDEELKRRVAEELAL

Variants of: B1
Experiment: protein stability index of a GFP-peptide fusion (GPS, HEK-293T) (PSI 1-6); higher = more stable
Conditions: c terminus: a fixed tail appended
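Note: lentivirally expressed fusions sorted by FACS into six bins by GFP to DsRed ratio, PSI derived from sequencing read proportions per bin multiplied by bin number.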

Protein stability index: each site, then its substitutions
A13: R 1.57, P 2.2
A16: S 5.08, T 2.94
N23: I 2.67, H 2.29, C 2.8, Y 2.99
N11: H 3.65
L3: G 1.84, P 1.96
L4: D 1.35
P17: E 4.79, M 1.17
Y7: S 3.15, H 3.18
V15: C 1.65
C6: N 1.91, L 3.27
T10: W 1.94
L8: Q 2.14, I 3.7, D 1.75, T 2.5, W 2.17
R20: Y 3.2, W 2.11, P 3.33
K5: F 1.07, H 2.48, T 2.57
L21: Y 1.84, P 2.73
L18: T 2.51, M 3.28, K 2.08
E22: L 2.73, D 2.71

Variants of: B2
Experiment: as above
Conditions: c terminus: a fixed tail appended

Protein stability index: each site, then its substitutions
R17: D 2.54, M 1.94, N 2.61, P 2.64, H 2.4, W 2.38, L 2.76, F 2.12, S 2.52, Y 2.33, V 2.63, A 2.57, Q 2.77, E 3.17, C 2.06, T 2.53
G3: W 2.63, V 3.98, D 5.41, N 4.18, I 4.29, C 2.73, L 4.33, T 2.9, S 3.37, H 4.1
L14: E 3.48, P 2.24, H 2.79, R 2.25, S 2.31, F 2.53, A 1.78, W 2.34, N 2.47, G 3.46, T 3.12, Y 3.56
K15: Q 2.83, A 2.99, H 2.69, S 3.47, G 2.58, F 2.11, R 2.84, I 2.5, V 2.65, E 3.33
S10: P 2.6, E 3.58, Q 2.72, R 2.66, V 2.92, H 2.98, L 2.8, I 2.69, Y 2.14, M 2.86, T 2.71
D11: F 2.27, L 2.57, K 2.49, W 2.31, P 1.7, T 2.24, Q 2.34, G 2.01, R 2.24, N 2.37, H 2.08, A 2.79, V 3.23, M 3.01, C 2.39
E13: S 2.26, T 2.66, G 2.18, C 2.33, V 2.38, Q 2.3, Y 1.76, D 2.9, A 2.61, I 2.2, F 2.49, W 2.56
V18: P 2.58, W 2.35, C 2.76, E 2.59, R 2.44, Y 2.09, H 2.75, L 2.93, K 2.38, A 2.42, T 2.39, D 2.54, F 2.64
E12: H 2.24, S 2.09, Q 2.09, P 3.73, C 2.2, R 2.59, V 2.37, T 2.71, F 2.09, Y 3.02, N 2.4, W 3.11, D 2.99
L24: H 2.31, N 2.54, I 2.46, W 2.33, F 1.77, A 2.62, V 2.37, R 2.52, S 2.31, E 2.92, Q 2.63, D 2.52, Y 2.5
Y5: G 4.92, F 1.33, I 4.44, C 2.75, A 5.09, Q 5.28, R 4.59, N 4.55, K 4.14, V 4.95, T 5.01, W 2.4, M 3.73, P 4.88
R16: D 3.66, W 2.54, S 1.95, F 2.3, Q 2.64, K 2.65, G 2.92, T 3.04, H 2.45, Y 2.19, E 2.46, N 2.65, C 1.92, I 2.11, V 2.17
A4: K 2.63, H 2.84, Y 2.15, E 3.31, S 3.39, P 4.24, N 2.97, Q 2.61, M 2.59, G 2.27, V 3.03
A7: N 3.61, D 4.27, C 1.72, F 2.58, P 2.94, I 2.71, Q 3.04, Y 2.61, L 2.42, E 4.3, H 2.98, T 2.99
A23: E 2.86, P 3.31, S 2.19, G 3.02, D 2.76, L 2.72, V 2.55, W 2.87, H 2.71, Y 2.7, K 2.71, C 3.08, I 2.52
S2: F 3.45, M 3.24, Q 3.46, C 2.48, D 5.1, G 3.62, N 3.63, W 4.26
A19: I 2.49, F 2.54, Q 2.56, D 2.84, E 3.04, H 3.24, L 3.05, M 3.43, K 2.47, S 2.05
S8: W 4.28, E 3.77, K 3.2, N 3.22, Q 3.02, T 2.01, G 3.1, F 2, M 3.52, R 2.88, Y 2.07
E21: T 2.33, F 2.44, D 2.45, P 3.47, Q 3.05, N 2.9, G 3.32, I 2.12, K 2.88, Y 2.45
V9: M 2.7, G 3.06, P 3.13, K 2.57, S 3.07, A 3.3, N 3.35, W 2.71, I 2.95, E 4.28, Y 1.94
G6: D 4.67, L 2.06, N 3.36, F 2.09, K 2.06, V 2.48, S 2.13, E 4.05, P 2.48, R 2.42, H 2.3, Q 2.81, A 1.84
E20: W 1.85, C 2.48, T 2.26, R 2.49, I 2.4, Y 2.27, V 1.57, G 1.58, S 3.03, K 2.9, D 3.01, P 2.49, N 2.15, L 2.22, M 2.16
L22: W 1.89, Y 1.94, V 3.58, D 2.75, M 2.87, K 2.19, C 2.57, I 2.7, T 3.26, R 3.32, G 2.33, N 3.21, Q 2.77, H 2.05, S 2.4, F 1.59
Y1: H 4.99, I 4.74, Q 5.07, R 4.63, T 4.34, A 4.93, C 3.63, M 5.2, G 4.87, N 4.71, K 3.73, S 5.45
